Key:
C179DDD (Homo sapiens) = assay: EMSA; details: 0.66 nM RNA; yeast tRNA 0.1 mg/ml; 10 mM Tris-HCl pH 7, 30 mM NaCl, 2.5 mM MgCl2, 0.1% IGEPAL CA-630, 0.1 mg/ml yeast tRNA, 1.5% RNaseOUT, 0.2 mM EDTA, 0.2 mM DTT, 30 C 20 min; 0.8% agarose/TBE …
C179Δtail (Homo sapiens) = assay: EMSA; details: 0.66 nM RNA; yeast tRNA 0.1 mg/ml; 10 mM Tris-HCl pH 7, 30 mM NaCl, 2.5 mM MgCl2, 0.1% IGEPAL CA-630, 0.1 mg/ml yeast tRNA, 1.5% RNaseOUT, 0.2 mM EDTA, 0.2 mM DTT, 30 C 20 min; 0.8% agarose/TBE …

Substance: Xist repeat E RNA probe
- binding signal (% probe shifted at 5 µM protein) (C179DDD (Homo sapiens)): 54
- binding signal (% probe shifted at 5 µM protein) (C179Δtail (Homo sapiens)): 2

From PMC12862363, “AURKB-driven dissolution of CIZ1–RNA assemblies from the inactive X chromosome in mitosis” (Nucleic Acids Research, 2026)
